Experimental data taken from US20040248211A1, “ICAM-related protein” (priority 1992, published 2004).

Target: T1, ICAM-R (Homo sapiens, UniProt P32942)
T1 construct: express the full length ICAM-1 and ICAM-R proteins, respectively; expressed in transfected cells; host or cells: COS cells, DEAE-dextran, plasmid pcDNA1AmpICAM-R
T1 sequence (P32942 30-547): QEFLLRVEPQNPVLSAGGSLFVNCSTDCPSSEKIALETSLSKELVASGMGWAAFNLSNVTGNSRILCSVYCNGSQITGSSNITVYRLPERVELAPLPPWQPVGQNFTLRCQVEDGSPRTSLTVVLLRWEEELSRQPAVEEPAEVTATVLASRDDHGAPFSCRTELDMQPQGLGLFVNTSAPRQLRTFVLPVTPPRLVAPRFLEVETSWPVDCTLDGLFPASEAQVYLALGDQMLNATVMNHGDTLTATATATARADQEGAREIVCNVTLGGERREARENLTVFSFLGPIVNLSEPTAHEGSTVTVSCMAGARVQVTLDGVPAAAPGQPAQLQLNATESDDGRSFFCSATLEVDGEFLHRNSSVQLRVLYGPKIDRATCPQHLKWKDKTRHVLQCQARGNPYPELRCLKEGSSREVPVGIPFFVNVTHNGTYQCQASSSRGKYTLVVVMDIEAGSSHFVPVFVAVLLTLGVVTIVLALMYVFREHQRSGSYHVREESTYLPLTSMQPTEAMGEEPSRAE
Assay: FACS binding to COS cell transfectants
Details: antibody 5.0 ug/ml
Experimental: For the anti-ICAM-R monoclonal antibody binding assay, COS cells transfected with constructs encoding the ICAM-R chimeric proteins or control constructs were removed from the plates by EDTA treatment and aliquoted at 2.5×10^5 cells per well in a 96-well round bottom plate. Cells were washed 3 times with ice cold washing buffer (PBS containing 1% BSA and 0.05% sodium azide). Anti-ICAM-R monoclonal antibody was applied at 5.0 ug/ml in 50 ul final volume and incubated on ice for 30 minutes. Cells were then washed three times with cold washing buffer and incubated with the FITC labeled secondary antibody (sheep anti-mouse IgG F(ab′)2) at a 1:100 dilution on ice for 30 minutes in dark in 50 ul final volume. After the incubation, cells were washed again for three times in the ice cold washing buffer and resuspended in 200 ul of 1% paraformaldehyde. The samples were analyzed on a Becton-Dickinson FACScan instrument. Results of the assay are given below in Table 5 as percent positive COS cell transfectants, wherein MOPC 21 (IgG1) and UPC 10 (IgG2a) are isotype matched controls, 18E3D is an ICAM-1 specific monoclonal antibody and ICR-1.1 to ICR-9.2 are ICAM-R specific monoclonal antibodies. The reactivities of monoclonal antibodies ICR-1.1 through ICR-9.2 were assayed in a different experiment than monoclonal antibodies ICR-12.1 through ICR-17.1.

B1: ICR-1.1: anti-ICAM-R monoclonal antibody, IgG2a, domain 1, ATCC HB 11053 (antibody, V domains shown)
VH: QVQLQQSGAELAKPGASVKMSCKASGYTFTVYWMHWVKQRPGQGLEWIGYINPNTDYTEYNQRFQDKATLTADKSSSTAYMQLSSLTSEDSAVYYCARWGGNSYGLDYWGQGTSVTVSS
VL: QIVLTQSPALMSASPGEKVTMTCSASSSVSYIYWYQQKPRSSPKPWIYLTSNLASGVPARFSGSGSGASYSLTISIMEAEDAATYYCQQWKSIPLTFGAGTKLELK
percent positive COS cell transfectants, ICAM-R: 54.33%
